Measured values taken from PMC11922745, “Reconstitution of SPO11-dependent double-strand break formation” (Nature, 2024).

What was measured:
[1] = target: T1, SPO11 (beta isoform);TOP6BL (Mus musculus;Mus musculus, UniProt Q9WTK8;J3QMY9 1-396;1-579, |); test: EMSA; double-end binding disfavoured at 0.8 nM, restored at higher protein; Hairpin EMSA: 25 mM Tris-HCl pH 7.5, 100 mM NaCl, 5 mM MgCl2, 7.5% glycerol, 2 mM DTT, 1 mg/ml BSA, 0.1 nM DNA, 30 min 30 C; cleavage-oligo EMSA: 25 mM HEPES-NaOH pH 7.5, 50 mM NaCl, 5 mM MgCl2, 7.5% glycerol, 1 mg/ml BSA, 2 mM DTT, 4 C; settings: protein: recombinant;recombinant; tags: N-terminal Flag-TEV;untagged; copies: 1;1; label: 5'-32P; 5' overhang 2 nt (TA) at both ends
T1 sequence 1: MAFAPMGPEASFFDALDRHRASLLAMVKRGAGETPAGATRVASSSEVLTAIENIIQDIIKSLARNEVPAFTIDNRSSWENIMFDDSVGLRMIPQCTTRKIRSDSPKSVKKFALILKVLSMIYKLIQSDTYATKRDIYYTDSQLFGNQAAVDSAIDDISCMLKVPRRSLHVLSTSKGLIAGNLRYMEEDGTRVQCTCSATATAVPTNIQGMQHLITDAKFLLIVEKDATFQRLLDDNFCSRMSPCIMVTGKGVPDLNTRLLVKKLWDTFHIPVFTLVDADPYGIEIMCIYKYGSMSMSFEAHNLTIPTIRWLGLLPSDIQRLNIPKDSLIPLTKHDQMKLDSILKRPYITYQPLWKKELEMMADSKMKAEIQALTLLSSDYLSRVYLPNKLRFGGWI
T1 sequence 2: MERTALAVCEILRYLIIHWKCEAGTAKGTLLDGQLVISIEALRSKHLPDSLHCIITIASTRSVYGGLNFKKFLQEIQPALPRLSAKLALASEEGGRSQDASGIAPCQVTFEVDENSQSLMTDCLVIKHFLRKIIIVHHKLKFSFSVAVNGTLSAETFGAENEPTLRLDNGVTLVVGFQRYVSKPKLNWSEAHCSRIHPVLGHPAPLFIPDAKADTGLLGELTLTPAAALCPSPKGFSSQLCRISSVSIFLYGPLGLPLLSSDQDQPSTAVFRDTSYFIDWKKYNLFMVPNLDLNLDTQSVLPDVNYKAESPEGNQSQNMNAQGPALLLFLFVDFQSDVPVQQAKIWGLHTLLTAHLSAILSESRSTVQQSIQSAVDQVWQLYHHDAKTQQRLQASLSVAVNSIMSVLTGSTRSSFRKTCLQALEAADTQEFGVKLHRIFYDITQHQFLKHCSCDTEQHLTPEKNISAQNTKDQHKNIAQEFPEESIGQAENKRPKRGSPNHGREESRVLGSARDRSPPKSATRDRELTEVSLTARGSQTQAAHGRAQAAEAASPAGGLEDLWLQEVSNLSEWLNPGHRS

[2] = target: T1, SPO11 (beta isoform);TOP6BL; test: EMSA; double-end binding; Hairpin EMSA: 25 mM Tris-HCl pH 7.5, 100 mM NaCl, 5 mM MgCl2, 7.5% glycerol, 2 mM DTT, 1 mg/ml BSA, 0.1 nM DNA, 30 min 30 C; cleavage-oligo EMSA: 25 mM HEPES-NaOH pH 7.5, 50 mM NaCl, 5 mM MgCl2, 7.5% glycerol, 1 mg/ml BSA, 2 mM DTT, 4 C; settings: protein: recombinant;recombinant; tags: N-terminal Flag-TEV;untagged; copies: 1;1; label: 5'-32P; 5' overhang 2 nt (TA) at both ends
[3] = target: T1, SPO11 (beta isoform);TOP6BL; test: EMSA; 5 mM Mg2+; apparent Kd, end binding; second shift at >=25 nM; Hairpin EMSA: 25 mM Tris-HCl pH 7.5, 100 mM NaCl, 5 mM MgCl2, 7.5% glycerol, 2 mM DTT, 1 mg/ml BSA, 0.1 nM DNA, 30 min 30 C; cleavage-oligo EMSA: 25 mM HEPES-NaOH pH 7.5, 50 mM NaCl, 5 mM MgCl2, 7.5% glycerol, 1 mg/ml BSA, 2 mM DTT, 4 C; settings: protein: recombinant;recombinant, tags: N-terminal Flag-TEV;untagged, copies: 1;1, label: 5'-32P, 5' overhang 2 nt
SPO11 E224A;TOP6BL = target: T2, SPO11 E224A;TOP6BL (Mus musculus;Mus musculus, UniProt Q9WTK8;J3QMY9 1-396;1-579, E224A|); test: EMSA; 5 mM Mg2+; DNA binding retained; Kd value only in figure; Hairpin EMSA: 25 mM Tris-HCl pH 7.5, 100 mM NaCl, 5 mM MgCl2, 7.5% glycerol, 2 mM DTT, 1 mg/ml BSA, 0.1 nM DNA, 30 min 30 C; cleavage-oligo EMSA: 25 mM HEPES-NaOH pH 7.5, 50 mM NaCl, 5 mM MgCl2, 7.5% glycerol, 1 mg/ml BSA, 2 mM DTT, 4 C; settings: protein: recombinant;recombinant, tags: N-terminal Flag-TEV;untagged, copies: 1;1, label: 5'-32P, 5' overhang 2 nt
T2 sequence 1: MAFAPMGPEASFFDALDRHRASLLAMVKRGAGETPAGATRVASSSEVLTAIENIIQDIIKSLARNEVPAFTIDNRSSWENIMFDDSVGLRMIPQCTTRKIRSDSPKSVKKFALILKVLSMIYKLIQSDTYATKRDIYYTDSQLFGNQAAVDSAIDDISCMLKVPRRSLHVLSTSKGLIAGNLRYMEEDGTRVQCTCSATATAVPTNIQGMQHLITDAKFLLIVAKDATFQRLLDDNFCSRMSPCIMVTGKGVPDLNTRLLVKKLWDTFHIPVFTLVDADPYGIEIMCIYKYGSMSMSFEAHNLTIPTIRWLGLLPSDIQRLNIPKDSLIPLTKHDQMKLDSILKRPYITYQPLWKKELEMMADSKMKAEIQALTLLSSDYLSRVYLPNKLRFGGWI
T2 sequence 2: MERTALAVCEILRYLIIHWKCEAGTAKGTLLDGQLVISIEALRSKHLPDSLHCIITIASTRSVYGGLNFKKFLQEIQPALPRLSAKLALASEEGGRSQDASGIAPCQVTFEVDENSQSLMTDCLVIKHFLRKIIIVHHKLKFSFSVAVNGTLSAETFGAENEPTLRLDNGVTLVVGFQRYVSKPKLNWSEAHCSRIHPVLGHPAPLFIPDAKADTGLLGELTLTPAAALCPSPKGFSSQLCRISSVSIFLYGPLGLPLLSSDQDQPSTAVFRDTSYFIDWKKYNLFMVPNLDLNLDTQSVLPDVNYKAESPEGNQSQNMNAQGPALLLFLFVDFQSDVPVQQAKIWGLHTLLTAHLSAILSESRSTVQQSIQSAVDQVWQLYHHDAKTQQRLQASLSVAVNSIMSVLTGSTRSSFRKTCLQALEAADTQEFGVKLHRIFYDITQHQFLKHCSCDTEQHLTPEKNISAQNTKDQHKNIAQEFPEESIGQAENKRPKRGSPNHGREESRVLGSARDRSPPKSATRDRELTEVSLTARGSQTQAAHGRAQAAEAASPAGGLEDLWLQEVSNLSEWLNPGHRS

SPO11 Y138F;TOP6BL = target: T3, SPO11 Y138F;TOP6BL (Mus musculus;Mus musculus, UniProt Q9WTK8;J3QMY9 1-396;1-579, Y138F|); test: EMSA; 5 mM Mg2+; apparent Kd; Hairpin EMSA: 25 mM Tris-HCl pH 7.5, 100 mM NaCl, 5 mM MgCl2, 7.5% glycerol, 2 mM DTT, 1 mg/ml BSA, 0.1 nM DNA, 30 min 30 C; cleavage-oligo EMSA: 25 mM HEPES-NaOH pH 7.5, 50 mM NaCl, 5 mM MgCl2, 7.5% glycerol, 1 mg/ml BSA, 2 mM DTT, 4 C; settings: protein: recombinant;recombinant, tags: N-terminal Flag-TEV;untagged, copies: 1;1, label: 5'-32P, 5' overhang 2 nt
T3 sequence 1: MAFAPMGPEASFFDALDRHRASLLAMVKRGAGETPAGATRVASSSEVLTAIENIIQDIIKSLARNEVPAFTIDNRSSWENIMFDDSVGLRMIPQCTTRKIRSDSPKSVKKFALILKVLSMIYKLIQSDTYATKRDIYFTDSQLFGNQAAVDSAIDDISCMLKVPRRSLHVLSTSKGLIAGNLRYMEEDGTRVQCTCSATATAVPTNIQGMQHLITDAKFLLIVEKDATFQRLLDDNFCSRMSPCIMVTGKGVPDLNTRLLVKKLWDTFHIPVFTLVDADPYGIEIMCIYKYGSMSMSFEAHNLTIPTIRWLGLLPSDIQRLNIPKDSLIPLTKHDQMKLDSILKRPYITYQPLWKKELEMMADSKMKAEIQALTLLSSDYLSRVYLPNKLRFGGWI
T3 sequence 2: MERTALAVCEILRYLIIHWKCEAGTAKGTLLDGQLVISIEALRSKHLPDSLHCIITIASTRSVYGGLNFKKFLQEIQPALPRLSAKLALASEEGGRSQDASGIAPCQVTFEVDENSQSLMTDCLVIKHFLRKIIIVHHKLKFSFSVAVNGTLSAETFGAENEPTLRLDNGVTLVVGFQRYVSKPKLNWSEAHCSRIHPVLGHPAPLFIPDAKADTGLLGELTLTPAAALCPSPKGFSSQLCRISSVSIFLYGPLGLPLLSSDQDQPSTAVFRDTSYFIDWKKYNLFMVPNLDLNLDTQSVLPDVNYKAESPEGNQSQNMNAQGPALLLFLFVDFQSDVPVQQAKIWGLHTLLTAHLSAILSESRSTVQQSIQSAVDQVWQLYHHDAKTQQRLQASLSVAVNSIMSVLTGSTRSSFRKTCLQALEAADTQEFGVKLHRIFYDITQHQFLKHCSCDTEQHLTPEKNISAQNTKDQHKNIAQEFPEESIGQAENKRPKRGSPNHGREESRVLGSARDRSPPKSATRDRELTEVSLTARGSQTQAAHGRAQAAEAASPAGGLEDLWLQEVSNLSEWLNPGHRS

B1: 27 bp double-overhang duplex (dsDNA)
DNA 1: TAGCAATGTAATCGTCTATGACGTTAGCG
DNA 2: TACGCTAACGTCATAGACGATTACATTGC
- binding result [1]: binds

B2: 28 bp double-overhang duplex (dsDNA)
DNA 1: TAGCAATGTAATCGTCTATGACGTTAGCGC
DNA 2: TAGCGCTAACGTCATAGACGATTACATTGC
- binding result [2]: binds

B3: 24 bp double-overhang duplex (dsDNA)
DNA 1: TAGCAATGTAATCGTCTATGACGTTA
DNA 2: TATAACGTCATAGACGATTACATTGC
- binding result [1]: binds

Binder: TAGCAATGTAATCGTCTATGACGTTAACGTCATAGACGATTACATTGC (structured_DNA) [25 bp hairpin, 2-nt 5' overhang]
- Kd [3]: 0.59 ± 0.05 nM
- binding result (SPO11 E224A;TOP6BL): binds
- Kd (SPO11 Y138F;TOP6BL): 0.57 ± 0.03 nM

B4: 25 bp double-overhang duplex (dsDNA)
DNA 1: TAGCAATGTAATCGTCTATGACGTTAG
DNA 2: TACTAACGTCATAGACGATTACATTGC
- binding result [1]: binds
